Source: article PMC10662374, “Structures of the interleukin 11 signalling complex reveal gp130 dynamics and the inhibitory mechanism of a cytokine variant” (Nature Communications, 2023)
Several values for one entry are separate records, joined by “and”; a condition that tells them apart may be missing. Equal values may be shown once. One block for each molecule: values may come before it.

What was measured:
[1] = biological target: IL-11_(Δ10/PAIDY)/IL-11Rα_(D1-D3) binary complex (human) (UniProt P20809); test: ITC; gp130 in the syringe titrated against the cytokine/IL-11Rα_(D1-D3) complex formed in the cell, 288 K, TBS pH 8.5, 1:1 interaction model, n = 3
[2] = biological target: IL-11_(Δ10/W147A)/IL-11Rα_(D1-D3) binary complex (human) (UniProt P20809); test: as above
[3] = biological target: T1, IL-11Δ10/IL-11Rα_(D1-D3) binary complex (human, UniProt P20809 32-199; Q14626 23-319); test: as above
T1 construct: IL-11, human, IL-11Δ10, as m1; numbers count on: the mature protein; IL-11Rα, human, D1-D3, as m8; m1 with m8; also called IL-11Rα_(D1-D3)/IL-11Δ10 binary complex; binary IL-11/IL-11Rα complex; source: formed from the purified proteins (IL-11Δ10 from E. coli, IL-11Rα_(D1-D3) from Sf21); in ITC by titrating the cytokine into IL-11Rα; not shown: His6, N-terminal, cleaved; His8, N-terminal, cleaved; …
T1 sequence 1: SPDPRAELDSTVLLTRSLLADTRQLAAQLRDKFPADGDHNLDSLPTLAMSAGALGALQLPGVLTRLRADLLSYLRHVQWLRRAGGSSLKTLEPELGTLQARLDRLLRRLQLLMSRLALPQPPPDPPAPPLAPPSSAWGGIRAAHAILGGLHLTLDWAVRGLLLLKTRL
T1 sequence 2: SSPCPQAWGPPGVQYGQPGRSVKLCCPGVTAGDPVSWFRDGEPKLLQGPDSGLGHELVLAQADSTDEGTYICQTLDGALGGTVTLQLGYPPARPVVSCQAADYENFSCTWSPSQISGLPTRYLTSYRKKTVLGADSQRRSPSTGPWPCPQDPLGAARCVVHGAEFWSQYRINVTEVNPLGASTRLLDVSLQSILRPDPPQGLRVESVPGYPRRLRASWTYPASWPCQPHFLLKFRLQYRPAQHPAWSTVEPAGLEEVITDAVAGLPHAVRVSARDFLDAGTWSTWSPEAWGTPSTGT

[4] = biological target: T2, IL-11Ralpha D1-D3 (Homo sapiens, UniProt Q14626); test: ITC
T2 chain: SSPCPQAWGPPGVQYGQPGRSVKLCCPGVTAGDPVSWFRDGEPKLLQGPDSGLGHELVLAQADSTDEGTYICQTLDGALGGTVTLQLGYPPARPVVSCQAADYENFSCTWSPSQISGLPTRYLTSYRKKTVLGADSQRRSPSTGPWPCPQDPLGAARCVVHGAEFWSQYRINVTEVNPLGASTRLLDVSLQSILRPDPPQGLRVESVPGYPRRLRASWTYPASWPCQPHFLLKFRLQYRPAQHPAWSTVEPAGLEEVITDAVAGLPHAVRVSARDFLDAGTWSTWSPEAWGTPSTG

[5] = biological target: T3, IL-11Rα_(D1-D3) (human, UniProt Q14626 23-319, N-linked glycans (N105, N172 seen in the structures)); test: ITC; cytokine in the syringe (10-fold above IL-11Rα), IL-11Rα_(D1-D3) in the cell at 10 μM, TBS pH 8.5, 1:1 interaction model, n = 3; conditions: both partners purified
T3 construct: Secreted with a honeybee-melittin signal peptide; also called C-terminally truncated form of IL-11Rα; not shown: His8, N-terminal, cleaved
T3 sequence: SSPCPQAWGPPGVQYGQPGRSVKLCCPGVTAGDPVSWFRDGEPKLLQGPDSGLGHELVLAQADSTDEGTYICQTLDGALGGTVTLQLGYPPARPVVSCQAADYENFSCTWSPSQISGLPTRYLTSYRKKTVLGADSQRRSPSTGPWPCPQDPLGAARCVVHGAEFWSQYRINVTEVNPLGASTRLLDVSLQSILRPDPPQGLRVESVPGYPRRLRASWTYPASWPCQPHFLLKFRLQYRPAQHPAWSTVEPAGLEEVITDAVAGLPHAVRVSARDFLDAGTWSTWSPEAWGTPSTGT

[6] = biological target: T4, IL-11Rα D1-D3 (human, UniProt Q14626 23-319); test: SPR; biotinylated IL-11Δ10-avi or IL-11Δ10/Mutein-avi immobilised on a streptavidin chip (SAHC 1500M); IL-11Rα D1-D3 flowed over, nine-point two-fold dilution series from 500 nM; Biacore T200, 25 °C, TBS pH 8.5 + 0.05% Tween, 30 uL/min; 1:1 kinetic model; two replicate dilution series (run 1, run 2); conditions: both partners purified
T4 construct: interleukin 11 receptor subunit alpha, human, C-terminally truncated form with the structured extracellular domains D1-D3; Secreted with a honeybee-melittin signal peptide; tag removed with TEV protease; N-glycosylated; also called IL11RA; RA; not shown: His8, N-terminal, cleaved
T4 sequence: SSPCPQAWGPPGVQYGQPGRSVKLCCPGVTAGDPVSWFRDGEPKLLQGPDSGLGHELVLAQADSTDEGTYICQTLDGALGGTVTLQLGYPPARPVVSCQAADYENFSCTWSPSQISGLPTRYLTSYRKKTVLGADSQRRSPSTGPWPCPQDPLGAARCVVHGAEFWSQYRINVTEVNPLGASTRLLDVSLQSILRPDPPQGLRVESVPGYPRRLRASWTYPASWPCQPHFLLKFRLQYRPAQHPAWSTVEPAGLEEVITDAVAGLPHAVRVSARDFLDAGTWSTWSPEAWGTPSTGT

[7] = biological target: T3, IL-11Rα_(D1-D3); test: SPR; Biacore T200, 25 °C, TBS pH 8.5 + 0.05% Tween, 30 μL/min; biotinylated IL-11-avi on a streptavidin chip, IL-11Rα_(D1-D3) flowed over (two-fold dilutions from 500 nM), 1:1 kinetic model, n = 2; conditions: both partners purified

Kd [1]: 60 nM | Kd [2]: 130 nM | Kd [3]: 380 nM | dH [3]: 27 kJ/mol
Molecule: gp130_(D2-D3) (receptor)

Kd [6]: 35.8 nM and 30.8 nM and 33.3 nM | koff [6]: 0.035 s⁻¹ and 0.0335 s⁻¹ | kon [6]: 937000 M⁻¹ s⁻¹ and 1.14e+06 M⁻¹ s⁻¹ and 1.04e+06 M⁻¹ s⁻¹
B2: biotinylated IL-11Δ10/Mutein-avi (ligand, human)
chain: SPDPRAELDSTVLLTRSLLADTRQLAAQLRDKFPADGDHNLDSLPTLPAIDYALGALQLPGVLTRLRADLLSYLRHVQWLRRAGGSSLKTLEPELGTLQARLDRLLRRLQLLMSRLALPQPPPDPPAPPLAPPSSAAGGIRAAHAILGGLHLTLDWAVRGLLLLKTRL
modifications: biotin on the C-terminal avitag
notes: interleukin 11, human, N-terminally truncated form IL-11Δ10 with the Mutein changes; numbers count on: the mature protein; not shown: His6, N-terminal, cleaved; avitag, C-terminal, kept

koff [7]: 0.11 s⁻¹
B4: biotinylated IL-11Δ10-avi (ligand, human)
chain: SPDPRAELDSTVLLTRSLLADTRQLAAQLRDKFPADGDHNLDSLPTLAMSAGALGALQLPGVLTRLRADLLSYLRHVQWLRRAGGSSLKTLEPELGTLQARLDRLLRRLQLLMSRLALPQPPPDPPAPPLAPPSSAWGGIRAAHAILGGLHLTLDWAVRGLLLLKTRL
modifications: biotin on the C-terminal avitag
notes: interleukin 11 (IL-11), human, N-terminally truncated form IL-11Δ10; numbers count on: the mature protein; source: E. coli BL21(DE3), biotinylated, purified as IL-11Δ10; not shown: His6, N-terminal, cleaved; avitag, C-terminal, kept

Further lines, the molecule ahead of its results:

B1: IL-11_(Δ10/W147A) (ligand, human)
chain: SPDPRAELDSTVLLTRSLLADTRQLAAQLRDKFPADGDHNLDSLPTLAMSAGALGALQLPGVLTRLRADLLSYLRHVQWLRRAGGSSLKTLEPELGTLQARLDRLLRRLQLLMSRLALPQPPPDPPAPPLAPPSSAAGGIRAAHAILGGLHLTLDWAVRGLLLLKTRL
notes: interleukin 11 (IL-11), human, IL-11Δ10 with W147A; numbers count on: the mature protein; also called IL-11 W147A; W147A mutant; not shown: His6, N-terminal, cleaved
Kd [4]: 10.4 nM | Kd [5]: 10 nM

B3: biotinylated IL-11_(Δ10/Mutein)-avi (ligand, human)
chain: SPDPRAELDSTVLLTRSLLADTRQLAAQLRDKFPADGDHNLDSLPTLPAIDYALGALQLPGVLTRLRADLLSYLRHVQWLRRAGGSSLKTLEPELGTLQARLDRLLRRLQLLMSRLALPQPPPDPPAPPLAPPSSAAGGIRAAHAILGGLHLTLDWAVRGLLLLKTRL
modifications: biotin on the C-terminal avitag
notes: interleukin 11 (IL-11), human, IL-11Δ10 with W147A and 58-62 AMSAG changed to PAIDY; numbers count on: the mature protein; source: E. coli BL21(DE3), biotinylated, purified as IL-11Δ10; not shown: His6, N-terminal, cleaved; avitag, C-terminal, kept
koff [7]: 0.034 s⁻¹
